According to patent publication US20220356230A1 (published 2022):

Legend:
[1] = molecular target: T1, MERS-CoV (SARS-CoV-2) Spike Protein S2 (aa 726-1296, His Tag) (Sino 40070-[change]) (MERS-CoV, UniProt K9N5Q8 726-1296); experiment: Luminex bead binding, antigen on microspheres, antibody supernatant
T1 sequence: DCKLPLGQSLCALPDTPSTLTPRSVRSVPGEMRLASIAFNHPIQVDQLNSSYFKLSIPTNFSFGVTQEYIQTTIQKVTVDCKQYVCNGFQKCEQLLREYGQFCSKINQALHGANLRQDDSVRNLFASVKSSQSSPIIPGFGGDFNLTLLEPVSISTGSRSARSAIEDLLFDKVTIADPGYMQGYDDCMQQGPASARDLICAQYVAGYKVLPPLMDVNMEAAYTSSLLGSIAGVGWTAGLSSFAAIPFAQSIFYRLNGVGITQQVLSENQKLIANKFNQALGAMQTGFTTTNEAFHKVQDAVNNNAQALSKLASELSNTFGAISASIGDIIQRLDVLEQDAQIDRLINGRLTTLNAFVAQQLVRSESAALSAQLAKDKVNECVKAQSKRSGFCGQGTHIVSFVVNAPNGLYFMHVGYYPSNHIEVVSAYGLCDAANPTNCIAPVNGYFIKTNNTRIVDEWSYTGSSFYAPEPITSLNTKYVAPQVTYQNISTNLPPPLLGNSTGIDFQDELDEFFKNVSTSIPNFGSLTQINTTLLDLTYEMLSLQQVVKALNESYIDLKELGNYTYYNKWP

[2] = molecular target: T2, MERS-CoV (SARS-CoV-2) Spike Protein (ECD, aa 1-1297, His Tag) (Sino 40069-[change]) (MERS-CoV, UniProt K9N5Q8 18-1297); experiment: as above
T2 sequence: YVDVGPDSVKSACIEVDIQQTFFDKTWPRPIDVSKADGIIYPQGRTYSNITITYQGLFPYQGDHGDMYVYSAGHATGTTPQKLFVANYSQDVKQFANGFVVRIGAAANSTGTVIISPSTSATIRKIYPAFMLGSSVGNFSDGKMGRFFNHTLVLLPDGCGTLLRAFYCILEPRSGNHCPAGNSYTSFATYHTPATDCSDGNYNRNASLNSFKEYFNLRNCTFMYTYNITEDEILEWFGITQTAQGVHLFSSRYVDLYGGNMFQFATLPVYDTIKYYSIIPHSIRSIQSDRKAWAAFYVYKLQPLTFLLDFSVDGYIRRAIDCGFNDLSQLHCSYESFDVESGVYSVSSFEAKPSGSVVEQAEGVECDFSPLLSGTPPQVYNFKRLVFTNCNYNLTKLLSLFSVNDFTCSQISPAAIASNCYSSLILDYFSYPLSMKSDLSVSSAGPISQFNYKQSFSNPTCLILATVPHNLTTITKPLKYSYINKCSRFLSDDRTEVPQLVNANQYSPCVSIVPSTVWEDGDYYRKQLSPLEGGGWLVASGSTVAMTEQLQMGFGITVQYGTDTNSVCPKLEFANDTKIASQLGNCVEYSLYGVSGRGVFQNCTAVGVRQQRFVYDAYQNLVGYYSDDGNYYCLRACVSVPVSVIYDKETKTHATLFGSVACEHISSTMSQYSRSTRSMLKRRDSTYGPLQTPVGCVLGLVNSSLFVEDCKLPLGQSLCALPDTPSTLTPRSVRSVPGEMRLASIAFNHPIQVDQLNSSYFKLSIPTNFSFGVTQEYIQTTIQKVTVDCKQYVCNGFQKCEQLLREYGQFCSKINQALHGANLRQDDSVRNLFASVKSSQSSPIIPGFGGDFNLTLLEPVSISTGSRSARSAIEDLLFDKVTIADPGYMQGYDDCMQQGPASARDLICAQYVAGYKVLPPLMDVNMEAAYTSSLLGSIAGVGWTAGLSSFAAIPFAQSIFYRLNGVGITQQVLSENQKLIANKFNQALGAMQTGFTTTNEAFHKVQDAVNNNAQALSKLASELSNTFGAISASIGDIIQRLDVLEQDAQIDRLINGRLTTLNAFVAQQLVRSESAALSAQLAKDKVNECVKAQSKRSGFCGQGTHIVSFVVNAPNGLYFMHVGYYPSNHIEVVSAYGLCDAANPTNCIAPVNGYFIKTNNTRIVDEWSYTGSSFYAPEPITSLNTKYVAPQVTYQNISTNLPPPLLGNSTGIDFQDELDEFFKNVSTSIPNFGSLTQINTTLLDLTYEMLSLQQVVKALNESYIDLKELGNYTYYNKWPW

[3] = molecular target: Human SARS Coronavirus Spike S1 Subunit Protein (His Tag) (Sino 40150-V08B1) (Human SARS Coronavirus, UniProt P59594 14-667); experiment: as above
[4] = molecular target: T3, MERS-CoV (SARS-CoV-2) Spike Protein (ECD, aa 1-1297, His Tag) (Sino 40069-[change]) (MERS-CoV, UniProt K9N5Q8 18-1297); experiment: Luminex bead assay, supernatant on antigen microspheres
T3 sequence: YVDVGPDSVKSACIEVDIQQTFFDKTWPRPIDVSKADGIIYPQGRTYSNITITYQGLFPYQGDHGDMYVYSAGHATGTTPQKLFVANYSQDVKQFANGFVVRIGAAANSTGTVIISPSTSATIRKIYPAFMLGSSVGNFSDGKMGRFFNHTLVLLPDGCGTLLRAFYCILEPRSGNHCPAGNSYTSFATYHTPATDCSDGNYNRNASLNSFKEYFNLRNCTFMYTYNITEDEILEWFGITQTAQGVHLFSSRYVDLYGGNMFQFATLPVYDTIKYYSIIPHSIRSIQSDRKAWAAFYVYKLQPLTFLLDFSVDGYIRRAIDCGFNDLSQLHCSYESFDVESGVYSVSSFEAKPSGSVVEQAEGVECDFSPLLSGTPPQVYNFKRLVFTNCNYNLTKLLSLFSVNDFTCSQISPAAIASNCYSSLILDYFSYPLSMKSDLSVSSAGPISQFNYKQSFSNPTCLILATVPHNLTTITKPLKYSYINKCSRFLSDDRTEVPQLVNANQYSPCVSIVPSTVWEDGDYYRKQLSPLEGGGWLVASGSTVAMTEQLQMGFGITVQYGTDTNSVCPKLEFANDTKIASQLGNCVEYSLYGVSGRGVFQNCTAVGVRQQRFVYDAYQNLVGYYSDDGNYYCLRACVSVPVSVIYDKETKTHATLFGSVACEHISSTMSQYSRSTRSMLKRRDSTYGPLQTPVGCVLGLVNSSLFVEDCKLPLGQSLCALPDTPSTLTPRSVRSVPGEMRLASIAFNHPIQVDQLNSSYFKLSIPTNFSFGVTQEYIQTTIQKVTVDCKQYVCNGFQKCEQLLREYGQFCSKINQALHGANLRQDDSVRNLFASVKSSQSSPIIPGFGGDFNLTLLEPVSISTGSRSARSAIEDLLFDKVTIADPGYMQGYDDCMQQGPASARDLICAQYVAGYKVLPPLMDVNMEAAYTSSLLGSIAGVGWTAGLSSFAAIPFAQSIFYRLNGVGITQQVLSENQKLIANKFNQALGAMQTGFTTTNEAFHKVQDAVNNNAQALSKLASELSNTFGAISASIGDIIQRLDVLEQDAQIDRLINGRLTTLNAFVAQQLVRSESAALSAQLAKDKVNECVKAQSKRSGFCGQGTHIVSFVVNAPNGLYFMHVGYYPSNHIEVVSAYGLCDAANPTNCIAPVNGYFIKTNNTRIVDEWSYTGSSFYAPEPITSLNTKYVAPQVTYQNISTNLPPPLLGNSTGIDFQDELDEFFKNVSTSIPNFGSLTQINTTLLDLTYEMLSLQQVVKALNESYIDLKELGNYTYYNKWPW

[5] = molecular target: T4, MERS-CoV (SARS-CoV-2) Spike Protein S2 (aa 726-1296, His Tag) (Sino 40070-[change]) (MERS-CoV, UniProt K9N5Q8 726-1296); experiment: as above
T4 sequence: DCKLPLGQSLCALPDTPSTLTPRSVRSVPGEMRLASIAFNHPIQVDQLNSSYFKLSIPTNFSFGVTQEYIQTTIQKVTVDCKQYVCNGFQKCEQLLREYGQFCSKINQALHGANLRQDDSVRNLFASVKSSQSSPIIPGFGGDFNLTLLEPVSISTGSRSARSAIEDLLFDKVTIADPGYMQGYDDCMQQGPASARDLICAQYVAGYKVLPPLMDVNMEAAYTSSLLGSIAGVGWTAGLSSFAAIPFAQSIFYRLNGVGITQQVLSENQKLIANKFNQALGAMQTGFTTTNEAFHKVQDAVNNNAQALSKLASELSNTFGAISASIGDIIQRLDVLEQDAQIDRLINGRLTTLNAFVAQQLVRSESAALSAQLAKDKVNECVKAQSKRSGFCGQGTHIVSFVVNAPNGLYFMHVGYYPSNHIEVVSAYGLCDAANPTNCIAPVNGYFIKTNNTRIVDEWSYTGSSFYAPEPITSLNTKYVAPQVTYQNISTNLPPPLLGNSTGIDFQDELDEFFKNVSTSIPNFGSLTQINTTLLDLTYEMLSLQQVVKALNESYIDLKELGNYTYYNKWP

[6] = molecular target: SARS-CoV-2 spike protein (S-wt, Wuhan-Hu-1, NCBI Accession Number MN908947.3) on VSV-SARS-CoV-2-S … (SARS-CoV-2, UniProt P0DTC2 14-1273); experiment: cell-based or functional assay

B1: mAb10970 (antibody, V domains shown)
VH: EVQLVESGGGLVQPGGSLRLSCAASGFTVSSNYMSWVRQAPGKGLEWVSVIYSGGSTYYADSVKGRFTISRDNSKNTLYLQMNRLRADDTAVYYCVRDPVGRYYYGMDVWGQGTTVTVSS
VL: not shown
MFI [1]: 16 MFI
MFI [2]: 14 MFI

B2: mAb10955 (antibody, V domains shown)
VH: EVQLVESGGGLVQPGGSLRVSCAASGFTVSRNYMSWVRQAPGKGLEWVSVIYSGGSTFYADSVKGRFTISRDNSKNTLYLQMNSLRAEDTAIYYCARYIPRFDPWGQGTLVTVSS
VL: DIQMTQSPSSLSASVGDRVTITCQASQDISNYLNWFQQKPGRAPKLLIYDASNLETGVPSRFSGSGSGTDFTFTISSLQPEDIATYYCQQYDNLPITFGQGTRLEIKR
MFI [1]: 18 MFI
MFI [3]: 14 MFI
MFI [2]: 15 MFI

B3: mAb10934 (antibody, V domains shown)
VH: not shown
VL: DIQMTQSPSSLSASVGDRVTITCQASQDIWNYINWYQQKPGKAPKLLIYDASNLKTGVPSRFSGSGSGTDFTFTISSLQPEDIATYYCQQHDDLPPTFGQGTKVEIKR
Binding signal (MFI) [4]: 15 MFI

B4: mAb10933 (antibody, V domains shown)
VH: QVQLVESGGGLVKPGGSLRLSCAASGFTFSDYYMSWIRQAPGKGLEWVSYITYSGSTIYYADSVKGRFTISRDNAKSSLYLQMNSLRAEDTAVYYCARDRGTTMVPFDYWGQGTLVTVSS
VL: DIQMTQSPSSLSASVGDRVTITCQASQDITNYLNWYQQKPGKAPKLLIYAASNLETGVPSRFSGSGSGTDFTFTISGLQPEDIATYYCQQYDNLPLTFGGGTKVEIKR
Binding signal (MFI) [5]: 19 MFI

B5: mAb10964 (antibody, V domains shown)
VH: QVQLQESGPGLVKPSETLSLTCTVSGGSINNYYWIWIRQPPGKGLEWIGYIYHSGSTNYNPSLKSRVTISVDTSKNQFSLKVSSVTAADTAVYYCANMVRGVYEDDYWGQGTLVTVSS
VL: DIQMTQSPSSLSASVGDRVTITCRASQSISNYLNWYQQKPGKAPKLLIFAASSLRSGVPSRFSGSGSGTDFTLTISSLHPEDFATYYCQQNYNTPLTFGPGTKVDIKR
MFI [3]: 5190 MFI
MFI [2]: 15 MFI

B6: mAb10915 (antibody, V domains shown)
VH: EVQLVESGGGLVQPGGSLRLSCAASGFTVSSNYMNWVRQAPGKGLEWVSVIYSGGSTFYADSVKGRFTISRHNSKNTLYLQMNSLRPEDTAVYYCARDLGGYFDYWGQGTLVTVSS
VL: not shown
Binding signal (MFI) [5]: 23 MFI

B7: mAb10986 (antibody, V domains shown)
VH: EVQLVESGGGLVQPGGSLRLSCAASEFTVSSNYMSWVRQAPGKGLEWVSVIYSGGSTFYADSVKGRFTISRDNSKNTLYLQMNSLRAEDTAVYYCARALPYGDLHFDYWGQGTLVTVSS
VL: QSVLTQPPSVSGAPGQRVTISCTGSSSNIGTGYDVHWYQQLPGTAPKLLIYGNTNRPSGVPDRFSGSKSGTSASLAITGLQAEDEADYYCQSYDSSLSDSYVFGTGTKVTVLG
mAb neutralization potency (IC50 (M)) [6]: 9.91e-11 M
